Results reported in paper PMC4826270.

Target: SecA* (SecA795C labelled with 5-iodoacetamidofluorescein) (UniProt P10408)
Assay: other fluorescence titration; SecYEG variant in detergent titrated into 10 nM fluorescein-labelled SecA*; quenching read at 522 nm; 20 mM Tris pH 8, 130 mM NaCl, 10% glycerol, 0.02% DDM, 2 mM MgCl2, 1 mM AMP-PNP; fitted to a tight binding equation

| Substance | Kd |
| --- | --- |
| SecY_(prlA4)EG (SecY_(F286Y/I408N)EG) (from UniProt P0AGA2 1-443; P0AG96 1-127; P0AG99 1-110) (complex) | 36 nM |
| SecY_(prlA4-EDP)EG (SecY_(F286Y,I408N,R357E,P358D,G359P)EG) (from UniProt P0AGA2 1-443; P0AG96 1-127; P0AG99 1-110) (complex) | 42 nM |
| SecYEDPEG (SecY_(R357E/P358D/G359P)EG) (from UniProt P0AGA2 1-443; P0AG96 1-127; P0AG99 1-110) (complex) | 135 nM |
